# From PMC7484176
# Target: wild-type FtrA from Brucella abortus 2308 (Brucella abortus 2308)
# Experiment: SEC
substance,measurement,value
wild-type FtrA from Brucella abortus 2308 (natural protein),stoichiometry N,2
